Results as given in patent US20240343831A1 (Regeneron, published 2024).

What was measured:
[1] = molecular target: Macaca fascicularis TMPRSS2-MMH (Macaca fascicularis); assay: SPR Biacore T200, mAb captured by anti-human Fc, 25 C, HBS-P pH 7.4
[2] = molecular target: Macaca fascicularis TMPRSS2-MMH (Macaca fascicularis); assay: SPR Biacore T200, mAb captured by anti-human Fc, 37 C, dissociation in PBS-T pH 6.0
[3] = molecular target: T1, ectodomain of human TMPRSS2-myc-myc-His (human, UniProt O15393 106-492); assay: SPR Biacore T200, 37 C, t½ at pH 7.4 over t½ at pH 6.0
T1 construct: extracellular domain; also called hTMPRSS2-MMH; human TMPRSS2-MMH
T1 sequence (O15393 106-492): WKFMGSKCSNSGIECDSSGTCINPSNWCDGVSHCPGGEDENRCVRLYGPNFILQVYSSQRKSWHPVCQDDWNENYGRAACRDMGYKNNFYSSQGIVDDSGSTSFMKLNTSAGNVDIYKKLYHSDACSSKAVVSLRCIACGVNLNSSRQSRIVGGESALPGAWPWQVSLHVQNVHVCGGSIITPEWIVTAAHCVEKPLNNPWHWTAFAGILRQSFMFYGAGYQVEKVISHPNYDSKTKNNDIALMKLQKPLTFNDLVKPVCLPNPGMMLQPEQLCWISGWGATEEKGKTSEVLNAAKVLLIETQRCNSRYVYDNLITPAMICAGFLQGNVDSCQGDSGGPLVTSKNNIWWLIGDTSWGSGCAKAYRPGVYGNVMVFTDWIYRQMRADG
Description: (§1) Dissociation rate constant (kd) for TMPRSS2 binding to purified anti-TMPRSS2 monoclonal antibody was determined using a real-time surface plasmon resonance based Biacore T200 biosensor platform. […] The CM5 Biacore sensor surface derivatized by amine coupling with an anti-human Fc specific mouse mAb was used to capture different anti-TMPRSS2 mAbs. All the TMPRSS2 reagents were expressed with a C-terminal myc-myc-hexahistidine tag (subsequently referred to as TMPRSS2-MMH).
(§2) Dissociation rate constants (kd) in two running buffers were determined by fitting the real-time binding sensorgrams to a 1:1 binding model using Scrubber 2.0c curve-fitting software.

mouse TMPRSS2-MMH [4] = molecular target: T2, mouse TMPRSS2-MMH (mouse, UniProt Q9JIQ8 105-490); assay: SPR Biacore T200, mAb captured by anti-human Fc, 37 C, HBS-P pH 7.4
T2 construct: extracellular domain; also called mTMPRSS2-MMH
T2 sequence (Q9JIQ8 105-490): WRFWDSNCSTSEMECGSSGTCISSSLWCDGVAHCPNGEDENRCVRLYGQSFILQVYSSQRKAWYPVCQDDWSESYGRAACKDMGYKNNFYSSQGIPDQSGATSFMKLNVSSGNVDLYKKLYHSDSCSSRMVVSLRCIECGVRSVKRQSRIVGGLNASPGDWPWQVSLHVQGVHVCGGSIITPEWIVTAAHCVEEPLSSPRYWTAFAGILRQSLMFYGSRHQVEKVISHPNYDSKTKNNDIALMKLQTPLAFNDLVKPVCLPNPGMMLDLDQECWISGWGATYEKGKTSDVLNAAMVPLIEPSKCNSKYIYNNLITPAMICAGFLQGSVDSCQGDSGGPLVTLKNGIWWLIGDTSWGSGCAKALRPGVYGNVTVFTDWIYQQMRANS
Description: (§3) The equilibrium dissociation constant (KD) for TMPRSS2 binding to different TMPRSS2 monoclonal antibodies (mAbs) was determined with a real-time surface plasmon resonance biosensor using a Biacore T200 instrument. All binding studies were performed in 10 mM HEPES, 150 mM NaCl, and 0.05% v/v Surfactant Tween-20, pH 7.4 (HBS-P) running buffer at 25° C. and 37° C. […] At the end of each cycle, the TMPRSS2 mAb captured surface was regenerated using a 12 sec injection of 20 mM phosphoric acid.
(§4) The association rate (kₐ) and dissociation rate (kd) were determined by fitting the real-time binding sensorgrams to a 1:1 binding model with mass transport limitation using Scrubber 2.0c curve-fitting software. Binding dissociation equilibrium constant (KD) and dissociative half-life (t½) were calculated from the kinetic rates as:

[5] = molecular target: T1, ectodomain of human TMPRSS2-myc-myc-His; assay: SPR Biacore T200, mAb captured by anti-human Fc, 25 C, HBS-P pH 7.4
Description: as §3, §4

[6] = molecular target: T1, ectodomain of human TMPRSS2-myc-myc-His; assay: SPR Biacore T200, mAb captured by anti-human Fc, 37 C, dissociation in PBS-T pH 6.0
Description: as §1, §2

mouse TMPRSS2-MMH [7] = molecular target: T2, mouse TMPRSS2-MMH; assay: SPR Biacore T200, 37 C, t½ at pH 7.4 over t½ at pH 6.0
Description: as §1, §2

[8] = molecular target: Macaca fascicularis TMPRSS2-MMH (Macaca fascicularis); assay: SPR Biacore T200, mAb captured by anti-human Fc, 37 C, HBS-P pH 7.4
mouse TMPRSS2-MMH [9] = molecular target: T2, mouse TMPRSS2-MMH; assay: SPR Biacore T200, mAb captured by anti-human Fc, 25 C, HBS-P pH 7.4
Description: as §3, §4

[10] = molecular target: T1, ectodomain of human TMPRSS2-myc-myc-His; assay: SPR Biacore T200, mAb captured by anti-human Fc, 37 C, dissociation in PBS-T pH 7.4
Description: as §1, §2

mouse TMPRSS2-MMH [11] = molecular target: T2, mouse TMPRSS2-MMH; assay: as above
Description: as §1, §2

[12] = molecular target: Macaca fascicularis TMPRSS2-MMH (Macaca fascicularis); assay: SPR Biacore T200, 37 C, t½ at pH 7.4 over t½ at pH 6.0
[13] = molecular target: T1, ectodomain of human TMPRSS2-myc-myc-His; assay: SPR Biacore T200, mAb captured by anti-human Fc, 37 C, HBS-P pH 7.4
Description: as §3, §4

mouse TMPRSS2-MMH [14] = molecular target: T2, mouse TMPRSS2-MMH; assay: SPR Biacore T200, mAb captured by anti-human Fc, 37 C, dissociation in PBS-T pH 6.0
Description: as §1, §2

[15] = molecular target: Macaca fascicularis TMPRSS2-MMH (Macaca fascicularis); assay: SPR Biacore T200, mAb captured by anti-human Fc, 37 C, dissociation in PBS-T pH 7.4

B1: mAb8029 (antibody, human IgG4 S228P, kappa, V domains shown)
VH: QLQLQESGPGLVKPSETLSLTCTVSGGSINSNSYYWGWIRQPPGKGLEWIGSIYYDRNTYYTPSLKSRVTISVDTSKNQFSLKLTSVTAADTAVYYCAREQVPGYYGMDVWGQGTTVTVSS
VL: DIQLTQSPSFLSASVGDRVTITCWASQGISRYLAWYQQKPGKTPKLLIYAASTLQSGVPSRFSGTGSGTDFTLTISNLQPEDFATYYCQQFDSYPWTFGQGTKVEIKR
notes: also called anti-TMPRSS2 mAb
With B1 the 100 nM mfTMPRSS2-MMH Bound (RU) [1] was 66.7 RU, the Kd [1] was 0.0609 nM and the koff [1] was 0.000196 s⁻¹. For the same binder, the kon [1] was 3.2e+06 M⁻¹ s⁻¹, the t½ [1] was 59.1 min and the 100 nm Ag Bound (RU) [2] was 94 RU. The koff [2] was 0.000339 s⁻¹, the t½ [2] was 34 min and the “t½ Ratio (pH 7.4/pH 6.0)” value [3] was 1. The Kd (mouse TMPRSS2-MMH [4]) was 9.75 nM, the koff (mouse TMPRSS2-MMH [4]) was 0.00209 s⁻¹ and the kon (mouse TMPRSS2-MMH [4]) was 214000 M⁻¹ s⁻¹. It also gave a t½ (mouse TMPRSS2-MMH [4]) of 5.5 min, a Kd [5] of 0.0592 nM and a koff [5] of 0.000129 s⁻¹. For the same binder, the kon [5] was 2.18e+06 M⁻¹ s⁻¹, the t½ [5] was 89.5 min and the koff [6] was 0.000615 s⁻¹. For the same binder, the t½ [6] was 19 min, the “t½ Ratio (pH 7.4/pH 6.0)” value (mouse TMPRSS2-MMH [7]) was 1 and the 100 nM mfMPRSS2-MMH Bound (RU) [8] was 35.3 RU. It also gave a Kd [8] of 0.0758 nM, a koff [8] of 0.000392 s⁻¹ and a kon [8] of 5.17e+06 M⁻¹ s⁻¹. For the same binder, the t½ [8] was 29.5 min, the Kd (mouse TMPRSS2-MMH [9]) was 3.33 nM and the koff (mouse TMPRSS2-MMH [9]) was 0.000442 s⁻¹. It also gave a kon (mouse TMPRSS2-MMH [9]) of 133000 M⁻¹ s⁻¹, a t½ (mouse TMPRSS2-MMH [9]) of 26.2 min and a koff [10] of 0.000624 s⁻¹. It also gave a t½ [10] of 19 min, a koff (mouse TMPRSS2-MMH [11]) of 0.00246 s⁻¹ and a t½ (mouse TMPRSS2-MMH [11]) of 5 min. The t½ Ratio (pH 7.4/pH 6.0) [12] was 0.8, the Kd [13] was 0.216 nM and the koff [13] was 0.000673 s⁻¹. For the same binder, the kon [13] was 3.12e+06 M⁻¹ s⁻¹, the t½ [13] was 17.2 min and the koff (mouse TMPRSS2-MMH [14]) was 0.00257 s⁻¹. It also gave a t½ (mouse TMPRSS2-MMH [14]) of 4 min, a 100 nm Ag Bound (RU) [15] of 90 RU and a koff [15] of 0.000408 s⁻¹. For the same binder, the t½ [15] was 28 min.

B2: mAb8021 (antibody, human IgG4 S228P, kappa, V domains shown)
VH: QVQLVQSGAEVKKPGASVRVSCKASGYTFTNYGITWVRQAPGQGLEWMGGISVYNGNTEYAEKFQGRVSMTTDTSTTTAYLELRSLKSDDTAVYFCARGQLDYFDPWGQGTLVTVSS
VL: EIVMTQSPATLSVSPGERATLSCRASQSVRSNLAWYQQKPGQAPSLLIYGASTRATGIPARFSGSGSGTEFTLTISSLQSEDFAVYFCLQYNNWWTFGQGTKVEIKR
notes: also called anti-TMPRSS2 mAb
In the case of B2, the 100 nM mfTMPRSS2-MMH Bound (RU) [1] is reported as 63.4 RU, the Kd [1] is reported as 0.0252 nM and the koff [1] is reported as 0.000113 s⁻¹. For the same binder, the kon [1] was 4.48e+06 M⁻¹ s⁻¹, the t½ [1] was 102 min and the 100 nm Ag Bound (RU) [2] was 70 RU. For the same binder, the koff [2] was 0.000111 s⁻¹, the t½ [2] was 104 min and the “t½ Ratio (pH 7.4/pH 6.0)” value [3] was 0.7. For the same binder, the Kd [5] was 0.0299 nM, the koff [5] was 9.19e-05 s⁻¹ and the kon [5] was 3.08e+06 M⁻¹ s⁻¹. For the same binder, the t½ [5] was 126 min, the koff [6] was 0.000129 s⁻¹ and the t½ [6] was 90 min. It also gave a 100 nM mfMPRSS2-MMH Bound (RU) [8] of 36.7 RU, a Kd [8] of 0.0141 nM and a koff [8] of 0.000109 s⁻¹. For the same binder, the kon [8] was 7.71e+06 M⁻¹ s⁻¹, the t½ [8] was 106 min and the koff [10] was 0.000192 s⁻¹. For the same binder, the t½ [10] was 60 min, the t½ Ratio (pH 7.4/pH 6.0) [12] was 0.9 and the Kd [13] was 0.0627 nM. For the same binder, the koff [13] was 0.000261 s⁻¹, the kon [13] was 4.17e+06 M⁻¹ s⁻¹ and the t½ [13] was 44.2 min. The 100 nm Ag Bound (RU) [15] was 71 RU, the koff [15] was 0.000127 s⁻¹ and the t½ [15] was 91 min.
